131 substances from the supplement of paper PMC12042874 can be followed below.

± gives the uncertainty stated by the source.

This data set in a line: amyloid nucleation score (Sup35N fusion, yeast selection) (log enrichment); library NNK3; higher = more nucleation; inactive = no reads after selection. In outline: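 Output and input plasmid inserts were sequenced by Illumina after psi-negative yeast carrying Sup35N fused to peptides of 20 random codons had been induced 24 hours with 100 μM copper sulfate and grown 7 days at 30°C on medium lacking adenine and uracil. The nucleation score is the DiMSum log enrichment of output over input reads, centred on the mode score of non-aggregating sequences. Sequences with under 100 input reads were excluded.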
For the substance IRGKYRLVVRDSLNVTPYRV, the amyloid nucleation score result is “inactive”. Consider IRMYSIWREDVSRRKARCMW, for which the amyloid nucleation score entry was “inactive”.

With IRNSVLWGHFIR, the amyloid nucleation score entry was “inactive”. In the case of IRRFIKNIVYTYGHLLLEAH, the amyloid nucleation score result is “inactive”. For IRSERTLDSATWDPFVVLKD, the amyloid nucleation score result was “inactive”. The figure for IRSRTVTWQQWQLHSRNGRS is 0.086 ± 0.56; for IRTSLSSVLDVCHTSNTI it is “inactive”. The entry for IRVRTYSTKLPSLGH is “inactive”; for IRYRRHVNVEFKMYNWSCWC it is -0.554 ± 0.63.

In the case of ISAGFAGNN, the amyloid nucleation score result was “inactive”. As for ISDDICSVKVSGRRACHWIG, the amyloid nucleation score entry was “inactive”. Regarding ISDLWLFATCSLK, the amyloid nucleation score result was “inactive”. For ISDPRLGKVPLWDMSSIVYV the value was “inactive”. The entry for ISFGYQVYA is “inactive”; for ISFRYHIYRSNCSQMNGRLT it is “inactive”.

Consider ISGKCRIVAVESSCECSLSS, for which the amyloid nucleation score result is “inactive”. ISHVEYLVLEPSMVYF registered an amyloid nucleation score of -0.349 ± 0.59. For ISKSVLMMNTAKIPPPMF the value was “inactive”; for ISLVLVCYKASVITLWENQW, -0.627 ± 1.4. The entry for ISMFDPLRCPWSNYGMCG is “inactive”; for ISMLTVVSN it is “inactive”; for ISMSVYFFTIISSQFMFPIR it is “inactive”.

For ISNSYH, the amyloid nucleation score entry was “inactive”.

ISNVIMWNWGLDFTNYYSDS showed an amyloid nucleation score of 1.45 ± 0.093. The entry for ISQFHYLGRIST is “inactive”; for ISQGFGCEFVFWFEEGKFFH it is “inactive”. For ISRLR the value was “inactive”. The substance ISRVCSNFLGLDVTFLMLLT returned an amyloid nucleation score of 1.42 ± 0.14. For ISSNLLHAVWYSHEPGW the value was 1.81 ± 0.061; for ISWVRFRAVFWMRMFEAH, -0.441 ± 1.4; for ITKQEVLSLTIFRMAEGVQW, 0.382 ± 0.4.

For the substance ITQLFSSLRADYAAQYYLGV, the amyloid nucleation score result is “inactive”. For ITQWWVYIKNF the value was “inactive”; for ITVFNLILM, 2.61 ± 0.058; for ITVSTGW, “inactive”. On to ITYFLWAVFYDGFSMSFFVA, for which the amyloid nucleation score entry was “inactive”.

Turning to IVDCLFK, the amyloid nucleation score result was “inactive”. IVECFYTL: the amyloid nucleation score entry is “inactive”. For IVKRFWLNGSFTFSFCNGNG, the amyloid nucleation score came out at 2.09 ± 0.09. On to IVLYQATCRSIKRVCVLETL, for which the amyloid nucleation score result was “inactive”. The entry for IVMIVNTGIA is “inactive”; for IVNIKMNLWFYGNFMLWASS it is “inactive”; for IVPSNSARLLSVKALDLPIS it is “inactive”. For IVRPLLNFLCDLCRKVALGK the value was “inactive”. The figure for IVSCLSCHLCLKCYSPLCVL is 0.851 ± 0.12; for IVSMSCGWFRGYRVDDGYM it is 1.38 ± 0.083. As to IVSWKVRSVSLKLLLSCAPD, the amyloid nucleation score entry is “inactive”. The figure for IVTNDVCVFSVQYSRFVVRL is 0.416 ± 0.23; for IVTVLNSVLGKGFQQAPRRG it is “inactive”; for IVVCRKEDSAQRFSFVRLSD it is “inactive”. Regarding IVVVFNPFGDELTYWVTQSM, the amyloid nucleation score result was “inactive”. The figure for IVYMAATKLMVVNSLCNGRG is 2.04 ± 0.09. The entry for IWCSRAGVRWVEMNVEQVYW is “inactive”; for IWENNSIML it is “inactive”. For IWNSRSSCPECALATLETWA the value was “inactive”; for IWQFRGSPSVYSARREWIDT, “inactive”; for IWTLVVCFLDVRRRR, -0.05 ± 0.53. Take IYCPYVGCVMSLGTGCM: the amyloid nucleation score was found to be 1.06 ± 0.19.

Consider IYCVEERHFLNIYSRMSYYS, for which the amyloid nucleation score entry is “inactive”. As to IYDRMGGHL, the amyloid nucleation score result was “inactive”. The figure for IYGSASNYMFILGIDRSRWA is 1.14 ± 0.15. As to IYGVRYWV, the amyloid nucleation score result was “inactive”. For IYLECIYNCFYVYKIMLHRV the value was “inactive”; for IYLIPITPIPVCYKIFLFGM, 1.19 ± 0.079; for IYSHSPLFLRRYGAIYESCR, “inactive”. Take IYTSGWINYSIARFACCIRW: the amyloid nucleation score entry is “inactive”. The entry for IYYPIMCAAVAYLLSSRFRC is “inactive”; for KAERVVRA it is “inactive”. On to KANDMVFMGGGVLKLGRTLA, for which the amyloid nucleation score result was “inactive”.

As for KCAALLDPDSASGGRCEWNC, the amyloid nucleation score came to 1.08 ± 0.17.

Take KCLMNFTVMRGASSCLEVPC: the amyloid nucleation score result was “inactive”. On to KCPRVDSA, for which the amyloid nucleation score result was “inactive”. For KCRGGRETIRLRRSLWVFMV the value was “inactive”.

KDIYYTSFILPDEWITG: the amyloid nucleation score entry was “inactive”. The entry for KDLKMYRGF is “inactive”. The entry for KDLNENGRLFIIDPIIFSMF is “inactive”; for KDMMWDVSRPYFYLVTYQIG it is “inactive”; for KDNKGMGRMFSNILFFTISL it is 0.663 ± 0.13. Take KDTRIQLVNNFICGDSLE: the amyloid nucleation score entry is “inactive”. As for KDWQTIYQLRSVTFFDLLVV, the amyloid nucleation score result was “inactive”. For KDYGLADGERHESM the value was “inactive”; for KEAPIWRKKGQNLLLPVSGW, “inactive”. As for KEFAIESTVLFYTVLLKAAH, the amyloid nucleation score result was “inactive”. For KEFCVRPLYRFSVRMNIC the value was 0.035 ± 0.62. For KERCLVSHCTTLCALFLRVI, the amyloid nucleation score result is “inactive”. For KERIQCYMRLPRFIN the value was “inactive”; for KFCLWYSGTNELDLCEPSMT, “inactive”; for KFFYCERVLSGNRVKRHERI, 0.676 ± 0.21.

Consider KFHIFFCSFCVPPE, for which the amyloid nucleation score is 3.17 ± 0.082. Take KFLPGCCFYMRIMSQVSLKN: the amyloid nucleation score result is “inactive”. The entry for KFWLKVHFYEHKWSWVMFEC is “inactive”; for KFYAYSEDMVSQYI it is “inactive”; for KFYDSISRLQNERGPVIFPR it is “inactive”. For the substance KGALRFITYSSMLVYYLNLG, the amyloid nucleation score result is “inactive”. As for KGCVRSGQIWLRCIWSQYP, the amyloid nucleation score entry was “inactive”. KGETDFVLKP: the amyloid nucleation score was -0.432 ± 0.87.

Take KGFSFLRIRRMGLWTVSGYG: the amyloid nucleation score result is “inactive”. On to KGQYLSIGYNNFRG, for which the amyloid nucleation score is -0.764 ± 1.8. For KGSDFSEFVAWRLLTAYRVP the value was “inactive”; for KGTYGFAINHHYIA, “inactive”. In the case of KGYRINSNFNKFNKPLCSAI, the amyloid nucleation score entry is “inactive”.

In the case of KHFLQVVRSSNRTVSARFPL, the amyloid nucleation score result was “inactive”.

In the case of KIDAN, the amyloid nucleation score entry was “inactive”. For KIFTWIRCNLSIFYSYGFKS the value was “inactive”; for KIMSYHIHVMFLLDYMKDRS, 1.28 ± 0.15.

With KINGIDSSGMCAISLIKKGA, the amyloid nucleation score result was “inactive”. The substance KINKREWRRFTVYSVFSHVS came in with an amyloid nucleation score of 0.435 ± 0.35. In the case of KINRVSLLVLGH, the amyloid nucleation score entry is “inactive”. Take KISSQIYMCRKTNSSDRTMM: the amyloid nucleation score result is “inactive”. KIWFCNWFANNYFMIANSST registered an amyloid nucleation score of 0.627 ± 0.11. For KIYANHLL the value was “inactive”; for KKGGLLLLNKYN, “inactive”. Regarding KLAKHH, the amyloid nucleation score entry is “inactive”. For KLDLQSSFLFLGSVHV the value was “inactive”; for KLGIRPDRISVTWCLSNTTV, -0.473 ± 1.3. Take KLKFMPRLSHKWDRDQLRVH: the amyloid nucleation score entry was “inactive”.

Substance KLLLMGCRDVYFSYRIFM showed an amyloid nucleation score of 3 ± 0.054. Consider KLMPVIVTFNRYFFGQVMEE, for which the amyloid nucleation score was determined as 1.2 ± 0.14. For KLMVNNQFISISINMSRCLF the value was 1.63 ± 0.098; for KLNILKTGMLCYVPHLIAHI, “inactive”.

Regarding KLPNYLYRLSLFPVTLVSTM, the amyloid nucleation score entry was “inactive”. For KLYESYASIRNNGCLRCSNS the value was “inactive”; for KMCIDFEPELYNLFLLAFHQ, “inactive”; for KMSLGLRCYSAYKEPLVQGE, -0.055 ± 1.1. The figure for KMTGLWLNVAVSDAFLEYDE is 1.46 ± 0.13; for KNDSVKSKCVSIGVPVPLLV it is “inactive”.

As for KNLGIG, the amyloid nucleation score entry was “inactive”.

For the substance KNMWTGSFDVFRRWPISLKG, the amyloid nucleation score entry is “inactive”. For KNSASLFL the value was “inactive”; for KNSLDALFYVTALFCTLSGD, -0.122 ± 0.38; for KNVTFTCHWTSKSLNMYYEE, 0.512 ± 0.29.
